Test results as given in PMC10883291.

Columns and labels:
Assay in all cases: FRET or BRET; time-resolved FRET (Cisbio); FcγRs expressed on HEK293 cells (Tb donor cells); IgG-d2 acceptor conjugate displaced by the test antibodies; EC50 by the manufacturer's protocol
[1] = target: FcγR3A (CD16aF158) (human) (UniProt P08637)
FcγR2B (human) = FcγR2B (human) (UniProt P31994)
FcγR1 (CD64) (human) = FcγR1 (CD64) (human) (UniProt P12314)
[2] = target: FcγR2A (CD32aH131) (human) (UniProt P12318)
[3] = target: FcγR2A (CD32aR131) (human)
Sequence of FcγR2A (CD32aR131) (human) (P12318 34-317 H167R): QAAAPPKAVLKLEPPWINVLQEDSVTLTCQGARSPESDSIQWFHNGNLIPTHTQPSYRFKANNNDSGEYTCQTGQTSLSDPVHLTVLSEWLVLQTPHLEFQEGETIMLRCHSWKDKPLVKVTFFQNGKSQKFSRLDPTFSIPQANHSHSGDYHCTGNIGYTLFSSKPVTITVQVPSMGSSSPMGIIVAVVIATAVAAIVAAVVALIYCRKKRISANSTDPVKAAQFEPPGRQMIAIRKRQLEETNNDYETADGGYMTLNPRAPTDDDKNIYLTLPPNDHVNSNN

Sequence of FcγR1 (CD64) (human) (P12314 16-374): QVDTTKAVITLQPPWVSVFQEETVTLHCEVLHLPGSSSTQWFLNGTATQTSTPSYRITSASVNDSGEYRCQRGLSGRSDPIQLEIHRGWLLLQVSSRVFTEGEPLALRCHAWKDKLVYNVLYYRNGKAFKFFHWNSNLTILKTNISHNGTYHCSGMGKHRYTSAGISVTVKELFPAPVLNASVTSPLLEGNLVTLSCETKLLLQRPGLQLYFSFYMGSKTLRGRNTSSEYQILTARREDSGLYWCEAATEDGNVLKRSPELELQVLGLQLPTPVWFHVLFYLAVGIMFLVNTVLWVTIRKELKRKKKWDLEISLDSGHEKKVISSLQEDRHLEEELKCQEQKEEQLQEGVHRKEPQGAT
Sequence of FcγR2A (CD32aH131) (human) (P12318 34-317): as the sequence (P12318 34-317 H167R) above, with R134H counted along it
Sequence of FcγR2B (human) (P31994 43-310): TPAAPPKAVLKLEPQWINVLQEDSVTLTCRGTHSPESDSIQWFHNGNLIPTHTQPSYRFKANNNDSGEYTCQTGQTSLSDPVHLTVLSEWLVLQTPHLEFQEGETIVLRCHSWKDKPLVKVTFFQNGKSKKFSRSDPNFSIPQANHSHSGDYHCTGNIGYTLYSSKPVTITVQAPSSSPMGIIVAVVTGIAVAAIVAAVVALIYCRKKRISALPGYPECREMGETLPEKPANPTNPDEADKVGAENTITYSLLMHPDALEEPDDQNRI
Sequence of FcγR3A (CD16aF158) (human) (P08637 17-254): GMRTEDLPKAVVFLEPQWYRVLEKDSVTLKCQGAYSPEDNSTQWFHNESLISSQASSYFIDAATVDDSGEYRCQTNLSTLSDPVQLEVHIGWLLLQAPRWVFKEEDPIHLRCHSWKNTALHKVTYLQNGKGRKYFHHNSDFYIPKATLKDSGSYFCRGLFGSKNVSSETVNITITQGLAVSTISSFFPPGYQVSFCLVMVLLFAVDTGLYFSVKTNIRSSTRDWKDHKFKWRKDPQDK

Substance | EC50 [1] [nM] | EC50 (FcγR2B (human)) [nM] | EC50 (FcγR1 (CD64) (human)) [nM] | EC50 [2] [nM] | EC50 [3] [nM]
BMS-986351 (antibody) | 1200 | 2480 | 0.8 | 200 | 
Rituximab (antibody) |  |  | 0.8 | 361 | 194
